Results from ChEMBL document CHEMBL2073850, “Human organic anion transporters and human organic cation transporters mediate renal transport of prostaglandins” (J Pharmacol Exp Ther, 2002).

Assays:
[1] = substrate: CCCCC[C@H](O)/C=C/[C@@H]1[C@@H](C/C=C\CCCC(=O)O)[C@@H](O)C[C@H]1O; assay: (§1) TP_TRANSPORTER: uptake in OAT2-expressing S2 cells; format: functional, cell-based
[2] = substrate: CCCCC[C@H](O)/C=C/[C@H]1[C@H](O)CC(=O)[C@@H]1C/C=C\CCCC(=O)O; assay: as §1; format: functional, cell-based
[3] = substrate: CCCCC[C@H](O)/C=C/[C@@H]1[C@@H](C/C=C\CCCC(=O)O)[C@@H](O)C[C@H]1O; assay: (§2) TP_TRANSPORTER: uptake in OCT2-expressing S2 cells; format: functional, cell-based
[4] = substrate: CCCCC[C@H](O)/C=C/[C@H]1[C@H](O)CC(=O)[C@@H]1C/C=C\CCCC(=O)O; assay: as §2; format: functional, cell-based
[5] = substrate: CCCCC[C@H](O)/C=C/[C@@H]1[C@@H](C/C=C\CCCC(=O)O)[C@@H](O)C[C@H]1O; assay: (§3) TP_TRANSPORTER: uptake in OCT1-expressing S2 cells; format: functional, cell-based
[6] = substrate: CCCCC[C@H](O)/C=C/[C@H]1[C@H](O)CC(=O)[C@@H]1C/C=C\CCCC(=O)O; assay: as §3; format: functional, cell-based
[7] = substrate: CCCCC[C@H](O)/C=C/[C@@H]1[C@@H](C/C=C\CCCC(=O)O)[C@@H](O)C[C@H]1O; assay: (§4) TP_TRANSPORTER: uptake in OAT3-expressing S2 cells; format: functional, cell-based
[8] = substrate: CCCCC[C@H](O)/C=C/[C@H]1[C@H](O)CC(=O)[C@@H]1C/C=C\CCCC(=O)O; assay: as §4; format: functional, cell-based
[9] = substrate: CCCCC[C@H](O)/C=C/[C@H]1[C@H](O)CC(=O)[C@@H]1C/C=C\CCCC(=O)O; assay: cells, lysate or membranes named
[10] = substrate: CCCCC[C@H](O)/C=C/[C@@H]1[C@@H](C/C=C\CCCC(=O)O)[C@@H](O)C[C@H]1O; assay: TP_TRANSPORTER: uptake in OAT1-expressing S2 cells; format: functional, cell-based
[11] = substrate: CCCCC[C@H](O)/C=C/[C@@H]1[C@@H](C/C=C\CCCC(=O)O)[C@@H](O)C[C@H]1O; assay: (§5) TP_TRANSPORTER: uptake in OAT4-expressing S2 cells; format: functional, cell-based
[12] = substrate: CCCCC[C@H](O)/C=C/[C@H]1[C@H](O)CC(=O)[C@@H]1C/C=C\CCCC(=O)O; assay: as §5; format: functional, cell-based

B1: Solute carrier family 22 member 7 (Homo sapiens) (protein)
chain: MGFEELLEQVGGFGPFQLRNVALLALPRVLLPLHFLLPIFLAAVPAHRCALPGAPANFSHQDVWLEAHLPREPDGTLSSCLRFAYPQALPNTTLGEERQSRGELEDEPATVPCSQGWEYDHSEFSSTIATESQWDLVCEQKGLNRAASTFFFAGVLVGAVAFGYLSDRFGRRRLLLVAYVSTLVLGLASAASVSYVMFAITRTLTGSALAGFTIIVMPLELEWLDVEHRTVAGVLSSTFWTGGVMLLALVGYLIRDWRWLLLAVTLPCAPGILSLWWVPESARWLLTQGHVKEAHRYLLHCARLNGRPVCEDSFSQEAVSKVAAGERVVRRPSYLDLFRTPRLRHISLCCVVVWFGVNFSYYGLSLDVSGLGLNVYQTQLLFGAVELPSKLLVYLSVRYAGRRLTQAGTLLGTALAFGTRLLVSSDMKSWSTVLAVMGKAFSEAAFTTAYLFTSELYPTVLRQTGMGLTALVGRLGGSLAPLAALLDGVWLSLPKLTYGGIALLAAGTALLLPETRQAQLPETIQDVERKSAPTSLQEEEMPMKQVQN
With B1 the Km [1] was 0.425 µM and the Km [2] was 0.713 µM.

B2: Solute carrier family 22 member 2 (Homo sapiens) (protein)
chain: MPTTVDDVLEHGGEFHFFQKQMFFLLALLSATFAPIYVGIVFLGFTPDHRCRSPGVAELSLRCGWSPAEELNYTVPGPGPAGEASPRQCRRYEVDWNQSTFDCVDPLASLDTNRSRLPLGPCRDGWVYETPGSSIVTEFNLVCANSWMLDLFQSSVNVGFFIGSMSIGYIADRFGRKLCLLTTVLINAAAGVLMAISPTYTWMLIFRLIQGLVSKAGWLIGYILITEFVGRRYRRTVGIFYQVAYTVGLLVLAGVAYALPHWRWLQFTVSLPNFFFLLYYWCIPESPRWLISQNKNAEAMRIIKHIAKKNGKSLPASLQRLRLEEETGKKLNPSFLDLVRTPQIRKHTMILMYNWFTSSVLYQGLIMHMGLAGDNIYLDFFYSALVEFPAAFMIILTIDRIGRRYPWAASNMVAGAACLASVFIPGDLQWLKIIISCLGRMGITMAYEIVCLVNAELYPTFIRNLGVHICSSMCDIGGIITPFLVYRLTNIWLELPLMVFGVLGLVAGGLVLLLPETKGKALPETIEEAENMQRPRKNKEKMIYLQVQKLDIPLN
For B2, the Km [3] was 0.334 µM and the Km [4] was 0.0289 µM.

B3: Solute carrier family 22 member 1 (Homo sapiens) (protein)
chain: MPTVDDILEQVGESGWFQKQAFLILCLLSAAFAPICVGIVFLGFTPDHHCQSPGVAELSQRCGWSPAEELNYTVPGLGPAGEAFLGQCRRYEVDWNQSALSCVDPLASLATNRSHLPLGPCQDGWVYDTPGSSIVTEFNLVCADSWKLDLFQSCLNAGFLFGSLGVGYFADRFGRKLCLLGTVLVNAVSGVLMAFSPNYMSMLLFRLLQGLVSKGNWMAGYTLITEFVGSGSRRTVAIMYQMAFTVGLVALTGLAYALPHWRWLQLAVSLPTFLFLLYYWCVPESPRWLLSQKRNTEAIKIMDHIAQKNGKLPPADLKMLSLEEDVTEKLSPSFADLFRTPRLRKRTFILMYLWFTDSVLYQGLILHMGATSGNLYLDFLYSALVEIPGAFIALITIDRVGRIYPMAMSNLLAGAACLVMIFISPDLHWLNIIIMCVGRMGITIAIQMICLVNAELYPTFVRNLGVMVCSSLCDIGGIITPFIVFRLREVWQALPLILFAVLGLLAAGVTLLLPETKGVALPETMKDAENLGRKAKPKENTIYLKVQTSEPSGT
B3 gave a Km [5] of 0.477 µM and a Km [6] of 0.657 µM.

B4: Organic anion transporter 3 (Homo sapiens) (protein)
chain: MTFSEILDRVGSMGHFQFLHVAILGLPILNMANHNLLQIFTAATPVHHCRPPHNASTGPWVLPMGPNGKPERCLRFVHPPNASLPNDTQRAMEPCLDGWVYNSTKDSIVTEWDLVCNSNKLKEMAQSIFMAGILIGGLVLGDLSDRFGRRPILTCSYLLLAASGSGAAFSPTFPIYMVFRFLCGFGISGITLSTVILNVEWVPTRMRAIMSTALGYCYTFGQFILPGLAYAIPQWRWLQLTVSIPFFVFFLSSWWTPESIRWLVLSGKSSKALKILRRVAVFNGKKEEGERLSLEELKLNLQKEISLAKAKYTASDLFRIPMLRRMTFCLSLAWFATGFAYYSLAMGVEEFGVNLYILQIIFGGVDVPAKFITILSLSYLGRHTTQAAALLLAGGAILALTFVPLDLQTVRTVLAVFGKGCLSSSFSCLFLYTSELYPTVIRQTGMGVSNLWTRVGSMVSPLVKITGEVQPFIPNIIYGITALLGGSAALFLPETLNQPLPETIEDLENWSLRAKKPKQEPEVEKASQRIPLQPHGPGLGSS
B4 was tested, and the Km [7] was 1.09 µM and the Km [8] was 0.345 µM.

B5: Solute carrier family 22 member 6 (Homo sapiens) (protein)
chain: MAFNDLLQQVGGVGRFQQIQVTLVVLPLLLMASHNTLQNFTAAIPTHHCRPPADANLSKNGGLEVWLPRDRQGQPESCLRFTSPQWGLPFLNGTEANGTGATEPCTDGWIYDNSTFPSTIVTEWDLVCSHRALRQLAQSLYMVGVLLGAMVFGYLADRLGRRKVLILNYLQTAVSGTCAAFAPNFPIYCAFRLLSGMALAGISLNCMTLNVEWMPIHTRACVGTLIGYVYSLGQFLLAGVAYAVPHWRHLQLLVSAPFFAFFIYSWFFIESARWHSSSGRLDLTLRALQRVARINGKREEGAKLSMEVLRASLQKELTMGKGQASAMELLRCPTLRHLFLCLSMLWFATSFAYYGLVMDLQGFGVSIYLIQVIFGAVDLPAKLVGFLVINSLGRRPAQMAALLLAGICILLNGVIPQDQSIVRTSLAVLGKGCLAASFNCIFLYTGELYPTMIRQTGMGMGSTMARVGSIVSPLVSMTAELYPSMPLFIYGAVPVAASAVTVLLPETLGQPLPDTVQDLESRWAPTQKEAGIYPRKGKQTRQQQEHQKYMVPLQASAQEKNGL
Work on B5 yielded a Km [9] of 0.97 µM and a Km [10] of 0.575 µM.

B6: Solute carrier family 22 member 11 (Homo sapiens) (protein)
chain: MAFSKLLEQAGGVGLFQTLQVLTFILPCLMIPSQMLLENFSAAIPGHRCWTHMLDNGSAVSTNMTPKALLTISIPPGPNQGPHQCRRFRQPQWQLLDPNATATSWSEADTEPCVDGWVYDRSVFTSTIVAKWDLVCSSQGLKPLSQSIFMSGILVGSFIWGLLSYRFGRKPMLSWCCLQLAVAGTSTIFAPTFVIYCGLRFVAAFGMAGIFLSSLTLMVEWTTTSRRAVTMTVVGCAFSAGQAALGGLAFALRDWRTLQLAASVPFFAISLISWWLPESARWLIIKGKPDQALQELRKVARINGHKEAKNLTIEVLMSSVKEEVASAKEPRSVLDLFCVPVLRWRSCAMLVVNFSLLISYYGLVFDLQSLGRDIFLLQALFGAVDFLGRATTALLLSFLGRRTIQAGSQAMAGLAILANMLVPQDLQTLRVVFAVLGKGCFGISLTCLTIYKAELFPTPVRMTADGILHTVGRLGAMMGPLILMSRQALPLLPPLLYGVISIASSLVVLFFLPETQGLPLPDTIQDLESQKSTAAQGNRQEAVTVESTSL
B6 was tested, and the Km [11] was 0.692 µM and the Km [12] was 0.154 µM.
